Experimental data published in patent US20240010720A1 (IOMX THERAPEUTICS, published 2024).

Key:
[1] = biological target: T1, murine IGSF11 on cells (mouse, UniProt P0C673 23-428); test: FACS, MC38-IGSF11 cells, IgG
T1 construct: UniProt P0C673; also called MC38-IGSF11 (murine); CT26-IGSF11 (murine)
T1 sequence: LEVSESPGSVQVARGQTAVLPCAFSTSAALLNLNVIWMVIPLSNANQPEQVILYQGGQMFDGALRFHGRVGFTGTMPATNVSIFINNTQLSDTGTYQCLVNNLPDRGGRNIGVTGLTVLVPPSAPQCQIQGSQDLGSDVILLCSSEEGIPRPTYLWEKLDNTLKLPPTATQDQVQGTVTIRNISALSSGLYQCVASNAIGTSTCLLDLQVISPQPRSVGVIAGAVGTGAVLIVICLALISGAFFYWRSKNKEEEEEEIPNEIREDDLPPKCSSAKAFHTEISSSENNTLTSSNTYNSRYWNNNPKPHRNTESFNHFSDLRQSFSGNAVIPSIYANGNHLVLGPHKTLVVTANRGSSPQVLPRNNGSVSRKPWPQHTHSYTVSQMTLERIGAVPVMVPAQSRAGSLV
Text: (§1) Unbound antibodies were removed by washing the cells three time with FACS buffer. Bound antibodies were detected with a mouse anti-human IgG antibody conjugated with AlexaFluor647.

[2] = biological target: T2, human IGSF11 (VSIG3) on cells (human, UniProt Q5DX21 23-431); test: FACS, MDA-MB-231-IGSF11 cells, IgG
T2 sequence: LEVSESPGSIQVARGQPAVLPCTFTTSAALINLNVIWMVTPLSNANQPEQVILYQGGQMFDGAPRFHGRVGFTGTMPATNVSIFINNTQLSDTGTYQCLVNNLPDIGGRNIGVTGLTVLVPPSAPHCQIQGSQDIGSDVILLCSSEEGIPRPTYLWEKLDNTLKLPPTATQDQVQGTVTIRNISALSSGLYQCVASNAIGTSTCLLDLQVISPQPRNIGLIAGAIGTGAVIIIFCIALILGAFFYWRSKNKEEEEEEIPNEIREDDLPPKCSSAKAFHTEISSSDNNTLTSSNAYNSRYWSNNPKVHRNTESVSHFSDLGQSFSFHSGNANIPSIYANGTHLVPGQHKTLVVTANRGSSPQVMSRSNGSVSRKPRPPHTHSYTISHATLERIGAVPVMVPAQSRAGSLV
Text: as §1

[3] = biological target: T1, murine IGSF11 on cells; test: FACS, CT26-IGSF11 cells, IgG
Text: as §1

[4] = biological target: T3, IGSF11 ECD fused to murine-Fc (human; mouse, UniProt Q5DX21 23-241); test: ELISA, IgG
T3 construct: also called Fc-fusion IGSF11 ECD; full-length ECD of IGSF11; not shown: murine Fc
T3 sequence: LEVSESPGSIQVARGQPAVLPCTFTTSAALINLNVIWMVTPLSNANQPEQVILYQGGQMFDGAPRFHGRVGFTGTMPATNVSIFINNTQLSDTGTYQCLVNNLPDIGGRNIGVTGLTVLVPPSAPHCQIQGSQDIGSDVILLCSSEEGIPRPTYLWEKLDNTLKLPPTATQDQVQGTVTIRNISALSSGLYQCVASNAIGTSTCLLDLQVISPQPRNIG

[5] = biological target: T4, recombinant human IGSF11 (VSIG3) extracellular domain (ECD) (human, UniProt Q5DX21 23-241, biotinylated where captured on streptavidin); test: ELISA, Fab
T4 construct: also called biotinylated recombinant ECD-IGSF11; IGSF11 (ECD domain)
T4 sequence: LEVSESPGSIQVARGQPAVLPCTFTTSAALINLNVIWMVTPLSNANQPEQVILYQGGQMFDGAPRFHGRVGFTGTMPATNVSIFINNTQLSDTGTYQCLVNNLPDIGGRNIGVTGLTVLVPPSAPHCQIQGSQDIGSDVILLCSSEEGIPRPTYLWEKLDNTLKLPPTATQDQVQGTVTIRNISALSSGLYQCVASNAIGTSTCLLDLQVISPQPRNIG
Experimental: (§2) In order to identify IGSF11-specific binding ABPs, monoclonal Fabs expressed from E. coli were generated from the enriched set of anti-IGFS11 antibody-expressing phage. After bacterial lysis, the Fabs were tested for their binding properties and cross-reactivity profile on recombinant ECD-IGSF11 (human, mouse and cynomolgus monkey) by standard ELISA. Briefly, biotinylated recombinant ECD-IGSF11 from human, mouse, or cynomolgus monkey were immobilized at 2 ug/mL on a streptavidin-coated 384-well Maxisorp plate. The surface was blocked with 2% (w/v) skim milk powder in PBST. After three wash cycles with PBST, a bacterial lysate of each of the anti-IGSF11 Fabs in 2% (w/v) skim milk powder was applied to the immobilized IGSF11 and incubated for 1 h. After removing all unbound Fab by 3 wash cycles with PBST, bound Fab antibodies were detected with a goat anti-human Fab antibody conjugated with horseradish peroxidase. After three wash cycles with PBST the ELISA was developed with TMB substrate.

[6] = biological target: T5, Streptavidin (UniProt P22629 37-163, limits assumed); test: ELISA, Fab
T5 construct: also called negative antigen; irrelevant antigen
T5 sequence (P22629 37-163 limits assumed): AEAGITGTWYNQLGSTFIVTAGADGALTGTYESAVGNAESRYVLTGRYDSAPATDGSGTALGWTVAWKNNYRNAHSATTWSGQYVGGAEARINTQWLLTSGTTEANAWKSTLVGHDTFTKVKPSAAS
Experimental: as §2

[7] = biological target: T6, recombinant murine IGSF11 extracellular domain (ECD) (mouse, UniProt P0C673 23-240, biotinylated); test: ELISA, Fab
T6 construct: also called Mouse IGSF11; murine ECD-IGSF11
T6 sequence: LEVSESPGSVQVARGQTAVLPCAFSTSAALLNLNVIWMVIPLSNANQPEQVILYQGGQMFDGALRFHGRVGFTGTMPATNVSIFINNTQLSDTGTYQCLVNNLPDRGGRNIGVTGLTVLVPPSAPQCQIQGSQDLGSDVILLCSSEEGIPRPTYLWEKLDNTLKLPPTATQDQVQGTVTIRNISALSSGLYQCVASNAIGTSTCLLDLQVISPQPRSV
Experimental: as §2

[8] = biological target: T7, recombinant cynomolgus monkey IGSF11 extracellular domain (ECD) (cynomolgus monkey, UniProt Q5DX21 23-241 (human entry), biotinylated); test: ELISA, Fab
T7 chain: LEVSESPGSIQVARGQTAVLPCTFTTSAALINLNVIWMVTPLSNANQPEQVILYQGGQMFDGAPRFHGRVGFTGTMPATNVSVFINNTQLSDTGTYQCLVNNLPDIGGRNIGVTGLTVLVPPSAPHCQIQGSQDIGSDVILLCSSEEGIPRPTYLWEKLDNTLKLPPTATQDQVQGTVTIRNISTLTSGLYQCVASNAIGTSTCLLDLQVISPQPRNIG
Experimental: as §2

[9] = biological target: T4, recombinant human IGSF11 (VSIG3) …; test: BLI, apparent affinity, IgG captured, IGSF11 ECD 100 nM
Text: Briefly, various APBs were loaded on an optical biosensor via a commercially available Capture System (AHC sensors, ForteBio).

[10] = biological target: T8, His-tagged extracellular domain (ECD) of human IGSF11 (VSIG3) (human, UniProt Q5DX21 23-241); test: blocking ELISA: antibody pre-incubated with His-tagged IGSF11 ECD, complexes added to immobilised VSIR-Fc; y axis % remaining IGSF11 binding to VSIR, x axis nM IgG per legend
T8 construct: partly bought (SinoBiological 13094-H08H); also called IGSF11-HIS; HIS-IGSF11; not shown: HIS6 tag
T8 sequence: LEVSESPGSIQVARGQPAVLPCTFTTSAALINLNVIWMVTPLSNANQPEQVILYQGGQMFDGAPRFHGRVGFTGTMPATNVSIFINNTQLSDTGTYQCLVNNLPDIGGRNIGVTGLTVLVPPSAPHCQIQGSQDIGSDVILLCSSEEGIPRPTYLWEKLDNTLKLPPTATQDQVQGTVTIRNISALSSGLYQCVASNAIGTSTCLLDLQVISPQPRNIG

B1: C-017 (IgG1 format) (antibody, V domains shown)
VH: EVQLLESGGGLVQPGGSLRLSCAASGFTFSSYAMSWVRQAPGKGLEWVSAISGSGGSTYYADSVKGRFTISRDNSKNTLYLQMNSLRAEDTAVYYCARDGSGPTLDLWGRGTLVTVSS
VL: DIQMTQSPSSLSASVGDRVTITCRASQSISSYLNWYQQKPGKAPKLLIYAASSLQSGVPSRFSGSGSGTDFTLTISSLQPEDFATYYCQQHRYIPPWTFGQGTKVEIK
notes: wildtype human IgG1 and kappa or lambda constant regions
Binder B1 has an EC50 [1] of 50 to 100 nM, an EC50 [2] of 15 to 25 nM and an EC50 [3] of 20 to 50 nM. It also gave an EC50 [4] of 1 to 20 nM.

B2: C-019 (Fab format) (Fab, V domains shown)
VH: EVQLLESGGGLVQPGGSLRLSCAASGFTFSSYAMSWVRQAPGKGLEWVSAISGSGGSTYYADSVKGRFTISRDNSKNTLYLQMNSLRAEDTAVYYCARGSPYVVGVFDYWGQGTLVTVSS
VL: DIQMTQSPSSLSASVGDRVTITCRASQSISSYLNWYQQKPGKAPKLLIYAASSLQSGVPSRFSGSGSGTDFTLTISSLQPEDFATYYCQQWQHEPPYTFGQGTKVEIK
notes: Fab in E. coli lysate
B2 showed an A450 [5] of less than 1, an A450 [6] of less than 0.1 and an A450 [7] of less than 1. For the same binder, the A450 [8] was less than 1.

B3: C-013 (Fab format) (Fab, V domains shown)
VH: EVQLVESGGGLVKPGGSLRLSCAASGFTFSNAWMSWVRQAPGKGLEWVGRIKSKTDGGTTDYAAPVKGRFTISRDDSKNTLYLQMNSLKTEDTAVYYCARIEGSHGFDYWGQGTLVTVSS
VL: SYELTQPPSVSVSPGQTASITCSGDKLGDKYASWYQQKPGQSPVLVIYQDSKRPSGIPERFSGSNSGNTATLTISGTQAEDEADYYCASYLHTPKQFVFGGGTKLTVL
notes: Fab in E. coli lysate
B3 was tested, and the A450 [5] was less than 1 and the A450 [6] was less than 0.1.

B4: C-018 (Fab format) (Fab, V domains shown)
VH: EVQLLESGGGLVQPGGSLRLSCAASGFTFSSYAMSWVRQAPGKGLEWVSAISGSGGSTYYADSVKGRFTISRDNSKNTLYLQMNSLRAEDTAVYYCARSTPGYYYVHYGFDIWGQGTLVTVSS
VL: SYELTQPPSVSVSPGQTASITCSGDKLGDKYASWYQQKPGQSPVLVIYQDSKRPSGIPERFSGSNSGNTATLTISGTQAEDEADYYCQAWSTSTHSWVFGGGTKLTVL
notes: Fab in E. coli lysate
In the case of B4, the A450 [5] is reported as less than 1, the A450 [6] is reported as less than 0.1 and the A450 [7] is reported as less than 1. For the same binder, the A450 [8] was less than 1.

B5: C-005 (IgG1 format) (antibody, V domains shown)
VH: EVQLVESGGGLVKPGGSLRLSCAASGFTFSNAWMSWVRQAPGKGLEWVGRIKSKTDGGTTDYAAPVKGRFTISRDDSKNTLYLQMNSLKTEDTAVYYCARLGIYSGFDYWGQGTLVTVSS
VL: SYELTQPPSVSVSPGQTASITCSGDKLGDKYASWYQQKPGQSPVLVIYQDSKRPSGIPERFSGSNSGNTATLTISGTQAEDEADYYCHSYTGKPSQVVFGGGTKLTVL
notes: as for B1
B5 showed an EC50 [1] of less than 20 nM, an EC50 [2] of less than 10 nM and a Kd [9] of less than 15 nM. For the same binder, the EC50 [3] was less than 20 nM and the EC50 [4] was less than 1 nM.

B6: C-027 (Fab format) (Fab, V domains shown)
VH: QVQLVQSGAEVKKPGSSVKVSCKASGGTFSSYAISWVRQAPGQGLEWMGGIIPIFGTANYAQKFQGRVTITADESTSTAYMELSSLRSEDTAVYYCARENIPSYYDSSGRQDAFDIWGQGTMVTVSS
VL: SYELTQPPSVSVSPGQTASITCSGDKLGDKYASWYQQKPGQSPVLVIYQDSKRPSGIPERFSGSNSGNTATLTISGTQAEDEADYYCQSYLHKSHGAVFGGGTKLTVL
notes: Fab in E. coli lysate
B6 was tested, and the A450 [5] was less than 1, the A450 [6] was less than 0.1 and the A450 [8] was less than 1.

B7: C-007 (IgG1 format) (antibody, V domains shown)
VH: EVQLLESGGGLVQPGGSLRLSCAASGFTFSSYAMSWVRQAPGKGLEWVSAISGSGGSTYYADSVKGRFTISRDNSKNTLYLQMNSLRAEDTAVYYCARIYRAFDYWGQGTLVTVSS
VL: ASVLTQPPSVSAAPGQKVTISCSGSSSNIGNNYVSWYQQLPGTAPKLLIYDNNKRPSGIPDRFSGSKSGTSATLGITGLQAEDEADYYCQLYEEEHSTWVFGGGTKLTVL
notes: as for B1
In the case of B7, the EC50 [1] is reported as less than 20 nM, the EC50 [2] is reported as less than 10 nM and the Kd [9] is reported as less than 125 nM. For the same binder, the EC50 [3] was 20 to 50 nM and the EC50 [4] was less than 1 nM.

B8: C-004 (Fab format) (Fab, V domains shown)
VH: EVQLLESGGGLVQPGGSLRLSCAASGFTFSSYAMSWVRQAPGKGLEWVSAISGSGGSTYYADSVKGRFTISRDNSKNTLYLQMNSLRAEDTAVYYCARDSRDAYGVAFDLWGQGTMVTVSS
VL: ASVLTQPPSVSAAPGQKVTISCSGSSSNIGNNYVSWYQQLPGTAPKLLIYDNNKRPSGIPDRFSGSKSGTSATLGITGLQAEDEADYYCLTWTGAGRIFVFGGGTKLTVL
notes: Fab in E. coli lysate
For B8, the A450 [5] was less than 1, the A450 [6] was less than 0.1 and the A450 [7] was less than 1. It also gave an A450 [8] of less than 1.

B9: C-016 (IgG1 format) (antibody, V domains shown)
VH: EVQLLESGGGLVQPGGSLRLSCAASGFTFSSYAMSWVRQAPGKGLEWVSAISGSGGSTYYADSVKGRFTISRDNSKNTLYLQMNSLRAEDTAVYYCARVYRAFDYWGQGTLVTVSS
VL: ASVLTQPPSVSAAPGQKVTISCSGSSSNIGNNYVSWYQQLPGTAPKLLIYDNNKRPSGIPDRFSGSKSGTSATLGITGLQAEDEADYYCHLYTEAESHWVFGGGTKLTVL
notes: as for B1
In the case of B9, the EC50 [1] is reported as 50 to 100 nM and the EC50 [3] is reported as 20 to 50 nM.

B10: C-001 (IgG1 format) (antibody, V domains shown)
VH: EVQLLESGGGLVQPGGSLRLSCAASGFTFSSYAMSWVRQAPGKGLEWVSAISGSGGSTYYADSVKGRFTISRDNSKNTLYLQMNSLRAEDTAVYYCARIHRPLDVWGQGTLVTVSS
VL: ASVLTQPPSVSAAPGQKVTISCSGSSSNIGNNYVSWYQQLPGTAPKLLIYDNNKRPSGIPDRFSGSKSGTSATLGITGLQAEDEADYYCGSWLEERSQYVFGGGTKLTVL
notes: wildtype human IgG1 and kappa or lambda constant regions; also called ABP C-001
In the case of B10, the EC50 [1] is reported as 50 to 100 nM, the EC50 [2] is reported as less than 10 nM and the Kd [9] is reported as less than 75 nM. The EC50 [3] was 20 to 50 nM and the EC50 [4] was less than 1 nM.

B11: B-008 (chain-swapped IgG1) (antibody, V domains shown)
VH: EVQLVESGGGLIQPGGSLRLSCAASGFTVSSNYMSWVRQAPGKGLEWVSVIYSGGSTYYADSVKGRFTISRDNSKNTLYLQMNSLRAEDTAVYYCARGNPYYYGDLQVNFDYWGQGTLVTVSS
VL: QAVVTQEPSLTVSPGGTVTPTCGSSTGAVTSGNLPNWFQQKPGQAPRALIYSTSNKHSWTPARISGSLLGGKAALTLSGVQPEDEAEYYCLLYYGGAWVFGGGTKLTVL
notes: human IgG1 format; also called B8
In the case of B11, the “IC50 (read off the curve)” value [10] is reported as roughly 4 nM.
